From US20220298218A1 (ANTAG THERAPEUTICS, published 2022)
*1 amine or outer side, *2 acyl side, *3 side chain or, on linkers, in order; H or OH if unused. Where no end group is shown, it is not given here. Side-chain parts run from the residue outwards. The star is where a group is joined. C18 diacid = O=C(O)CCCCCCCCCCCCCCCCC(=O)*; C16 diacid = O=C(O)CCCCCCCCCCCCCCC(=O)*; γGlu = O=C(O)[C@H](CCC(=O)[*:2])N[*:1]; AEEA = NCCOCCOCC(=O)O

T1: human GIP receptor (human, UniProt P48546 22-466)
T1 sequence (looked up): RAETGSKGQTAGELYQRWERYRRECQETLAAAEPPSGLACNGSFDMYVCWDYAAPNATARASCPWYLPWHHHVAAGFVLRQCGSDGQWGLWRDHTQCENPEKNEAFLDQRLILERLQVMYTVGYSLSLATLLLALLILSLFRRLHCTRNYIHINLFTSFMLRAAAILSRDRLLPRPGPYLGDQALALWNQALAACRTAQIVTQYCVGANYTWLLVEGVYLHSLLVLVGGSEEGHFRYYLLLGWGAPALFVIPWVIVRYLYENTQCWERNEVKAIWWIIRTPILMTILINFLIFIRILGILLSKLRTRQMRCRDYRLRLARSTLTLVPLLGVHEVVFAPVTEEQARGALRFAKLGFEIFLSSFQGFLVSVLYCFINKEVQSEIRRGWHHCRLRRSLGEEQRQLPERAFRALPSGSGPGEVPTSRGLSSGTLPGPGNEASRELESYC

B1: AT626 (peptide)
peptide: EGTFISDYSIAMDKIK(C16 diacid)QQDFVNWLLEGGPSSGAPPPS-OH
modifications: N-terminus assumed
SMILES: CC[C@H](C)[C@H](NC(=O)[C@H](CO)NC(=O)[C@H](Cc1ccc(O)cc1)NC(=O)[C@H](CC(=O)O)NC(=O)[C@H](CO)NC(=O)[C@@H](NC(=O)[C@H](Cc1ccccc1)NC(=O)[C@@H](NC(=O)CNC(=O)[C@@H](N)CCC(=O)O)[C@@H](C)O)[C@@H](C)CC)C(=O)N[C@@H](C)C(=O)N[C@@H](CCSC)C(=O)N[C@@H](CC(=O)O)C(=O)N[C@@H](CCCCN)C(=O)N[C@H](C(=O)N[C@@H](CCCCNC(=O)CCCCCCCCCCCCCCC(=O)O)C(=O)N[C@@H](CCC(N)=O)C(=O)N[C@@H](CCC(N)=O)C(=O)N[C@@H](CC(=O)O)C(=O)N[C@@H](Cc1ccccc1)C(=O)N[C@H](C(=O)N[C@@H](CC(N)=O)C(=O)N[C@@H](Cc1c[nH]c2ccccc12)C(=O)N[C@@H](CC(C)C)C(=O)N[C@@H](CC(C)C)C(=O)N[C@@H](CCC(=O)O)C(=O)NCC(=O)NCC(=O)N1CCC[C@H]1C(=O)N[C@@H](CO)C(=O)N[C@@H](CO)C(=O)NCC(=O)N[C@@H](C)C(=O)N1CCC[C@H]1C(=O)N1CCC[C@H]1C(=O)N1CCC[C@H]1C(=O)N[C@@H](CO)C(=O)O)C(C)C)[C@@H](C)CC
B2: AT627 (peptide)
peptide: EGTFISDYSIAMDKIK(C18 diacid)QQDFVNWLLAQKPSSGAPPPS-OH
modifications: N-terminus assumed
SMILES: CC[C@H](C)[C@H](NC(=O)[C@H](CO)NC(=O)[C@H](Cc1ccc(O)cc1)NC(=O)[C@H](CC(=O)O)NC(=O)[C@H](CO)NC(=O)[C@@H](NC(=O)[C@H](Cc1ccccc1)NC(=O)[C@@H](NC(=O)CNC(=O)[C@@H](N)CCC(=O)O)[C@@H](C)O)[C@@H](C)CC)C(=O)N[C@@H](C)C(=O)N[C@@H](CCSC)C(=O)N[C@@H](CC(=O)O)C(=O)N[C@@H](CCCCN)C(=O)N[C@H](C(=O)N[C@@H](CCCCNC(=O)CCCCCCCCCCCCCCCCC(=O)O)C(=O)N[C@@H](CCC(N)=O)C(=O)N[C@@H](CCC(N)=O)C(=O)N[C@@H](CC(=O)O)C(=O)N[C@@H](Cc1ccccc1)C(=O)N[C@H](C(=O)N[C@@H](CC(N)=O)C(=O)N[C@@H](Cc1c[nH]c2ccccc12)C(=O)N[C@@H](CC(C)C)C(=O)N[C@@H](CC(C)C)C(=O)N[C@@H](C)C(=O)N[C@@H](CCC(N)=O)C(=O)N[C@@H](CCCCN)C(=O)N1CCC[C@H]1C(=O)N[C@@H](CO)C(=O)N[C@@H](CO)C(=O)NCC(=O)N[C@@H](C)C(=O)N1CCC[C@H]1C(=O)N1CCC[C@H]1C(=O)N1CCC[C@H]1C(=O)N[C@@H](CO)C(=O)O)C(C)C)[C@@H](C)CC
B3: AT629 (peptide)
peptide: EGTFISDYSIAMDKIK([AEEA-AEEA-γGlu-C16 diacid])QQDFVNWLLAQKPSSGAPPPS-OH
modifications: N-terminus assumed
SMILES: CC[C@H](C)[C@H](NC(=O)[C@H](CO)NC(=O)[C@H](Cc1ccc(O)cc1)NC(=O)[C@H](CC(=O)O)NC(=O)[C@H](CO)NC(=O)[C@@H](NC(=O)[C@H](Cc1ccccc1)NC(=O)[C@@H](NC(=O)CNC(=O)[C@@H](N)CCC(=O)O)[C@@H](C)O)[C@@H](C)CC)C(=O)N[C@@H](C)C(=O)N[C@@H](CCSC)C(=O)N[C@@H](CC(=O)O)C(=O)N[C@@H](CCCCN)C(=O)N[C@H](C(=O)N[C@@H](CCCCNC(=O)COCCOCCNC(=O)COCCOCCNC(=O)CC[C@H](NC(=O)CCCCCCCCCCCCCCC(=O)O)C(=O)O)C(=O)N[C@@H](CCC(N)=O)C(=O)N[C@@H](CCC(N)=O)C(=O)N[C@@H](CC(=O)O)C(=O)N[C@@H](Cc1ccccc1)C(=O)N[C@H](C(=O)N[C@@H](CC(N)=O)C(=O)N[C@@H](Cc1c[nH]c2ccccc12)C(=O)N[C@@H](CC(C)C)C(=O)N[C@@H](CC(C)C)C(=O)N[C@@H](C)C(=O)N[C@@H](CCC(N)=O)C(=O)N[C@@H](CCCCN)C(=O)N1CCC[C@H]1C(=O)N[C@@H](CO)C(=O)N[C@@H](CO)C(=O)NCC(=O)N[C@@H](C)C(=O)N1CCC[C@H]1C(=O)N1CCC[C@H]1C(=O)N1CCC[C@H]1C(=O)N[C@@H](CO)C(=O)O)C(C)C)[C@@H](C)CC
B4: AT630 (peptide)
peptide: EGTFISDYSIAMDKIKQQDFVNWLLAQKPSSGAPPPS
HELM: PEPTIDE1{E.G.T.F.I.S.D.Y.S.I.A.M.D.K.I.K.Q.Q.D.F.V.N.W.L.L.A.Q.K.P.S.S.G.A.P.P.P.S}|PEPTIDE2{[O=C(O)CCCCCCCCCCCCCCC(=O)[*:2]].[gGlu]}$PEPTIDE1,PEPTIDE2,16:R3-2:R2$$$V2.0; N-terminus assumed
SMILES: CC[C@H](C)[C@H](NC(=O)[C@H](CO)NC(=O)[C@H](Cc1ccc(O)cc1)NC(=O)[C@H](CC(=O)O)NC(=O)[C@H](CO)NC(=O)[C@@H](NC(=O)[C@H](Cc1ccccc1)NC(=O)[C@@H](NC(=O)CNC(=O)[C@@H](N)CCC(=O)O)[C@@H](C)O)[C@@H](C)CC)C(=O)N[C@@H](C)C(=O)N[C@@H](CCSC)C(=O)N[C@@H](CC(=O)O)C(=O)N[C@@H](CCCCN)C(=O)N[C@H](C(=O)N[C@@H](CCCCNC(=O)CC[C@H](NC(=O)CCCCCCCCCCCCCCC(=O)O)C(=O)O)C(=O)N[C@@H](CCC(N)=O)C(=O)N[C@@H](CCC(N)=O)C(=O)N[C@@H](CC(=O)O)C(=O)N[C@@H](Cc1ccccc1)C(=O)N[C@H](C(=O)N[C@@H](CC(N)=O)C(=O)N[C@@H](Cc1c[nH]c2ccccc12)C(=O)N[C@@H](CC(C)C)C(=O)N[C@@H](CC(C)C)C(=O)N[C@@H](C)C(=O)N[C@@H](CCC(N)=O)C(=O)N[C@@H](CCCCN)C(=O)N1CCC[C@H]1C(=O)N[C@@H](CO)C(=O)N[C@@H](CO)C(=O)NCC(=O)N[C@@H](C)C(=O)N1CCC[C@H]1C(=O)N1CCC[C@H]1C(=O)N1CCC[C@H]1C(=O)N[C@@H](CO)C(=O)O)C(C)C)[C@@H](C)CC
B5: AT632 (peptide)
peptide: TFISDYKIAMDKIHQQDFVNWLLAQKPSSGAPPPS
HELM: PEPTIDE1{T.F.I.S.D.Y.K.I.A.M.D.K.I.H.Q.Q.D.F.V.N.W.L.L.A.Q.K.P.S.S.G.A.P.P.P.S}|PEPTIDE2{[O=C(O)CCCCCCCCCCCCCCC(=O)[*:2]].[gGlu]}$PEPTIDE1,PEPTIDE2,7:R3-2:R2$$$V2.0; N-terminus assumed
SMILES: CC[C@H](C)[C@H](NC(=O)[C@H](CCCCNC(=O)CC[C@H](NC(=O)CCCCCCCCCCCCCCC(=O)O)C(=O)O)NC(=O)[C@H](Cc1ccc(O)cc1)NC(=O)[C@H](CC(=O)O)NC(=O)[C@H](CO)NC(=O)[C@@H](NC(=O)[C@H](Cc1ccccc1)NC(=O)[C@@H](N)[C@@H](C)O)[C@@H](C)CC)C(=O)N[C@@H](C)C(=O)N[C@@H](CCSC)C(=O)N[C@@H](CC(=O)O)C(=O)N[C@@H](CCCCN)C(=O)N[C@H](C(=O)N[C@@H](Cc1c[nH]cn1)C(=O)N[C@@H](CCC(N)=O)C(=O)N[C@@H](CCC(N)=O)C(=O)N[C@@H](CC(=O)O)C(=O)N[C@@H](Cc1ccccc1)C(=O)N[C@H](C(=O)N[C@@H](CC(N)=O)C(=O)N[C@@H](Cc1c[nH]c2ccccc12)C(=O)N[C@@H](CC(C)C)C(=O)N[C@@H](CC(C)C)C(=O)N[C@@H](C)C(=O)N[C@@H](CCC(N)=O)C(=O)N[C@@H](CCCCN)C(=O)N1CCC[C@H]1C(=O)N[C@@H](CO)C(=O)N[C@@H](CO)C(=O)NCC(=O)N[C@@H](C)C(=O)N1CCC[C@H]1C(=O)N1CCC[C@H]1C(=O)N1CCC[C@H]1C(=O)N[C@@H](CO)C(=O)O)C(C)C)[C@@H](C)CC
B6: AT633 (peptide)
peptide: Ac-EGTFISDYSIAMDKIK(C16 diacid)QQDFVNWLLAQKPSSGAPPPS-OH
SMILES: CC[C@H](C)[C@H](NC(=O)[C@H](CO)NC(=O)[C@H](Cc1ccc(O)cc1)NC(=O)[C@H](CC(=O)O)NC(=O)[C@H](CO)NC(=O)[C@@H](NC(=O)[C@H](Cc1ccccc1)NC(=O)[C@@H](NC(=O)CNC(=O)[C@H](CCC(=O)O)NC(C)=O)[C@@H](C)O)[C@@H](C)CC)C(=O)N[C@@H](C)C(=O)N[C@@H](CCSC)C(=O)N[C@@H](CC(=O)O)C(=O)N[C@@H](CCCCN)C(=O)N[C@H](C(=O)N[C@@H](CCCCNC(=O)CCCCCCCCCCCCCCC(=O)O)C(=O)N[C@@H](CCC(N)=O)C(=O)N[C@@H](CCC(N)=O)C(=O)N[C@@H](CC(=O)O)C(=O)N[C@@H](Cc1ccccc1)C(=O)N[C@H](C(=O)N[C@@H](CC(N)=O)C(=O)N[C@@H](Cc1c[nH]c2ccccc12)C(=O)N[C@@H](CC(C)C)C(=O)N[C@@H](CC(C)C)C(=O)N[C@@H](C)C(=O)N[C@@H](CCC(N)=O)C(=O)N[C@@H](CCCCN)C(=O)N1CCC[C@H]1C(=O)N[C@@H](CO)C(=O)N[C@@H](CO)C(=O)NCC(=O)N[C@@H](C)C(=O)N1CCC[C@H]1C(=O)N1CCC[C@H]1C(=O)N1CCC[C@H]1C(=O)N[C@@H](CO)C(=O)O)C(C)C)[C@@H](C)CC

Target: T1, human GIP receptor
Test: cell-based or functional assay

Binder	cAMP agonism % Emax [%]	cAMP antagonism [nM]	cAMP antagonism % inhib [%]	cAMP antagonism pIC50
B1	0	4.47	100	8.4
B2	0	15.9	97	7.8
EGTFISDYSIAMDKIK(C18)QQDFVNWLLAQKPSSGAPPPS-OH [AT628]	0	58.4	94	7.2
B3	0	17.1	93	7.8
B4	0	11.2	85	8
B5	0	8.41	100	8.1
B6	23	–	–	~8.8
